Experimental data published in patent US20250171806A1 (BROAD INSTITUTE, published 2025).

Legend:
Assay in all cases: co-immunoprecipitation from HEK293 lysate: Flag IP of NS3, HA Western blot
[1] = target: T1, HA-tagged Galleria mellonella (Gm) densovirus capsid protein VP1 (Galleria mellonella (Gm) densovirus, UniProt Q90125 1-811)
T1 construct: also called Gm VP1; GmDNV capsid VP protein 1
T1 sequence: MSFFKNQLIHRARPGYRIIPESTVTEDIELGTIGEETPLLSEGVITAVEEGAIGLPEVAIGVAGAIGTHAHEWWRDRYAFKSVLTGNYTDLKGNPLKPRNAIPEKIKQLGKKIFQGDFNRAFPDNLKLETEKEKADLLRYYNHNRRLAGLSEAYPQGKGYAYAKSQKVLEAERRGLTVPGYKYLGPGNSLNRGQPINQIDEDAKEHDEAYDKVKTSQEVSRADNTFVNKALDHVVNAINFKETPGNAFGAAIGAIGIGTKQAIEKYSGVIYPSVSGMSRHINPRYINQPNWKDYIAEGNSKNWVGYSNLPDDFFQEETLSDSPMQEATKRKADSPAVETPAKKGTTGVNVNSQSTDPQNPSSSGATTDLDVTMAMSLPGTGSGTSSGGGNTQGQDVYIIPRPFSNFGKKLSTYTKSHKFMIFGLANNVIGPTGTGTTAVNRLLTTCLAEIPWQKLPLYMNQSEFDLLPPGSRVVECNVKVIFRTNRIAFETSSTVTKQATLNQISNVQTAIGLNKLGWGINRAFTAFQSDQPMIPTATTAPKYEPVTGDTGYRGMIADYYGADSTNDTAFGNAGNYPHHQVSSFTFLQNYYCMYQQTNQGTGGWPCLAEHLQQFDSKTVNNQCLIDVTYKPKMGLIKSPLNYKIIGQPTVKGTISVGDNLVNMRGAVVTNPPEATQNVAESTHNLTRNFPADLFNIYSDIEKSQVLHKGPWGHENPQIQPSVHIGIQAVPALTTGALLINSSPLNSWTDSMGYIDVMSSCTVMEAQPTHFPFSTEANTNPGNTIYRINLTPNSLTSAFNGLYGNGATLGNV

[2] = target: T2, HA-tagged Galleria mellonella (Gm) densovirus capsid protein VP2 (Galleria mellonella (Gm) densovirus, UniProt Q90125 277-811)
T2 construct: also called Gm VP2; GmDNV capsid VP protein 2
T2 sequence: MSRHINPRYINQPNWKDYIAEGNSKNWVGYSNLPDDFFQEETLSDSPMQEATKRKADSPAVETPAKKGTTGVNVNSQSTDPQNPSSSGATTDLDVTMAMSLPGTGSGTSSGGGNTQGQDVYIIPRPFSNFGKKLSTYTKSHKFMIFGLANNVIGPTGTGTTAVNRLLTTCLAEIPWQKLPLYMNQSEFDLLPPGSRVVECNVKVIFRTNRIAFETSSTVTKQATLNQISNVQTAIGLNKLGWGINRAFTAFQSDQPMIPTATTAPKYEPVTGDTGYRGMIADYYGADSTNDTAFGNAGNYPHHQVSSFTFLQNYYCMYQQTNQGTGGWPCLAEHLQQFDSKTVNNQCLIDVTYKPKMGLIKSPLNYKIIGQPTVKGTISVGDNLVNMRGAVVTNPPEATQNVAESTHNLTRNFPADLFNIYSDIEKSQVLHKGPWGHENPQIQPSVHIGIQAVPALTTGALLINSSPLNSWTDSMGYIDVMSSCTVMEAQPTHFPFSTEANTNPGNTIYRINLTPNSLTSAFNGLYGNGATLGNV

[3] = target: T3, HA-tagged Galleria mellonella (Gm) densovirus capsid protein VP3 (Galleria mellonella (Gm) densovirus, UniProt Q90125 324-811)
T3 construct: also called Gm VP3; GmDNV capsid VP protein 3
T3 sequence: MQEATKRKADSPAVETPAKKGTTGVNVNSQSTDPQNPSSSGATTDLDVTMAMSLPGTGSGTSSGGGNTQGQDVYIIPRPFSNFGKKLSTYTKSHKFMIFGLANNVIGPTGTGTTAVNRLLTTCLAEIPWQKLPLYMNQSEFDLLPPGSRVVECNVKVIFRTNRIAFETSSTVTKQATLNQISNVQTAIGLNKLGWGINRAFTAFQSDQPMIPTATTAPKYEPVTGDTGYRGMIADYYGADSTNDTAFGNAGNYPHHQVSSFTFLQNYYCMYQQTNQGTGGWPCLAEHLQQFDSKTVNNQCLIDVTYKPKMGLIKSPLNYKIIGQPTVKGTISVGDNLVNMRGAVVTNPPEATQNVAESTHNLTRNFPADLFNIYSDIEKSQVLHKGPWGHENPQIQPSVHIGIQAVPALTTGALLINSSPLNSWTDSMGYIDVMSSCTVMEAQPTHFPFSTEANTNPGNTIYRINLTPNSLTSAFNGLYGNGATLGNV

[4] = target: T4, HA-tagged Galleria mellonella (Gm) densovirus capsid protein VP4 (Galleria mellonella (Gm) densovirus, UniProt Q90125 375-811)
T4 construct: also called Gm VP4; GmDNV capsid VP protein 4
T4 sequence: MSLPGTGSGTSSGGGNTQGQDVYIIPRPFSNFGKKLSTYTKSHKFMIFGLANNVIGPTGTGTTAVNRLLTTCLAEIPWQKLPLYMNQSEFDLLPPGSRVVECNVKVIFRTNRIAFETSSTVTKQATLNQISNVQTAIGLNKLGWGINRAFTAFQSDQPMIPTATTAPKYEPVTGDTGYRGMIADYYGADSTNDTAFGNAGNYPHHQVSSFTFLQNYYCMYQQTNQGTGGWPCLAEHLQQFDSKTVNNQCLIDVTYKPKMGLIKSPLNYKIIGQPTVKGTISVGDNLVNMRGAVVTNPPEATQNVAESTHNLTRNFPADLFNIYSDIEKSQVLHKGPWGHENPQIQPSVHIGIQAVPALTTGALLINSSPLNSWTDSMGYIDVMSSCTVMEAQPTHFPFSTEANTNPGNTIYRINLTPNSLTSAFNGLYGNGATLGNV

Measured: binding result

B1: Flag-tagged Galleria mellonella (Gm) densovirus nonstructural protein NS3 (other)
chain: MSIAKFLYVRRLFEKVYNPKSLFYEAYKCARLNGLDMSILPKPILNMSHDMDTQIIACGEDINHTLAIEELEHWDWSKQNRLPFQLYLAVMNLTEIPEWLDETMLIECVYYFKELINHRDPYDTDELNTWNANGKPFKTMWKICKFCYNNCEDPDDYRFIYNRTVFVEDVEEIITRLQDSDSWCQLCHTCPLFNISAIYDNSPNNKQRRYSSSDDDDYMSNSFFVKHPNSRH
notes: also called Gm NS3; GmNS3; not shown: Flag tag, at either the N or the C terminus
binds: all assays above

B2: Gm NS3 with C-terminal Flag tag (other)
chain: MSIAKFLYVRRLFEKVYNPKSLFYEAYKCARLNGLDMSILPKPILNMSHDMDTQIIACGEDINHTLAIEELEHWDWSKQNRLPFQLYLAVMNLTEIPEWLDETMLIECVYYFKELINHRDPYDTDELNTWNANGKPFKTMWKICKFCYNNCEDPDDYRFIYNRTVFVEDVEEIITRLQDSDSWCQLCHTCPLFNISAIYDNSPNNKQRRYSSSDDDDYMSNSFFVKHPNSRH
notes: also called NS3 when the Flag tag was present on the C-terminus; not shown: C-terminal Flag tag
binds: all assays above
